This note sets out measurements from patent publication US8927205.

The target in experiment [1] is TNFR1-Fas receptor chimera on mouse fibroblasts from TNFR1/TNFR2 double-knockout mice (MF TNFR1-Fas cells) (UniProt P19438). The experiment is described as follows: cell-based or functional assay.
For experiment [2], the target named is normal human wild-type TNF receptors on Kym1 cells. Put plainly: cell-based or functional assay.

Chain of TNFR1-Fas receptor chimera on mouse fibroblasts from TNFR1/TNFR2 double-knockout mice (MF TNFR1-Fas cells) (P19438 other isoform, or with tags, fused parts or gaps mutant limits assumed): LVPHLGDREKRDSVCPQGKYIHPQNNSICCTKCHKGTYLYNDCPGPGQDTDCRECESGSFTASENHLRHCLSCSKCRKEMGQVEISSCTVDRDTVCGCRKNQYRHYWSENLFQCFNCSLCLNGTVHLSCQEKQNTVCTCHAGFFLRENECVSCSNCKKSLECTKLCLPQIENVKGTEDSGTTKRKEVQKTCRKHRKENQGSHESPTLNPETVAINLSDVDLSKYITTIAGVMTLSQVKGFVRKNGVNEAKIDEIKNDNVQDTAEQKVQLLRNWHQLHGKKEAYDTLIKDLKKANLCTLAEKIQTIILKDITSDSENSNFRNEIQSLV

“soluble human wild-type TNF (from UniProt P01375 57-233) (ligand)”: in experiment [1], the ED50 (half-maximal effective concentration), cytotoxicity on MF TNFR1-Fas cells, freshly prepared dilutions is 0.2 ng/mL; the ED50, cytotoxicity on MF TNFR1-Fas cells, dilutions stored 8 days at 37° C. before the test was found to be 2 ng/mL; the ED50, cytotoxicity on MF TNFR1-Fas cells, solutions stored 14 days at 37° C. before the test was 2.8 ng/mL. In experiment [2], this substance returned an ED50, cytotoxicity on Kym1 cells, solutions stored 16 days at 37° C. (FIG. 8) of 1.2 ng/mL; an ED50 after 8 days (FIG. 12), stored at 37° C. in 100% human serum, cytotoxicity on Kym1 cells of 0.4 ng/mL; an ED50 after 22 days (FIG. 9), cytotoxicity on Kym1 cells, samples stored at 37° C. of 1.5 ng/mL; an ED50 freshly titrated (FIG. 7), cytotoxicity on Kym1 cells of 0.1 ng/mL. The ED50 freshly titrated (FIG. 11), diluted in 100% human serum, cytotoxicity on Kym1 cells in experiment [2] amounted to 0.004 ng/mL.
